Paper PMC7954794, “Protein context shapes the specificity of SH3 domain-mediated interactions in vivo” (Nature Communications, 2021)

B1: YIL095W (protein, UniProt P40494 1-810, looked up)
Actin-regulating kinase PRK1: MNTPQISLYEPGTILTVGSHHAKIIKYLTSGGFAQVYTAEISPPDPYSNANIACLKRVIVPHKQGLNTLRAEVDAMKLLRNNKHVVSYIDSHAARSVNGIAYEVFVLMEFCERGGLIDFMNTRLQNRLQESEILEIMSQTVQGITAMHALQPPLIHRDIKIENVLISHDGLYKVCDFGSVSGVIRPPRNTQEFNYVQHDILTNTTAQYRSPEMIDLYRGLPIDEKSDIWALGVFLYKICYYTTPFEKSGEAGILHARYQYPSFPQYSDRLKNLIRLMLMEAPSQRPNICQVLEEVSRLQNKPCPIRNFYLLRAMNQNANTQLAGEPSSTTYVPTQKFIPVQSLQSINQPPNMMPVTHVSTTPNLGTFPISINDNNKTEVTAHAGLQVGSHSNLTSPLMKTKSVPLSDEFASLYYKELHPFQKSQTFKSVESFQSPQRKSMPPLSLTPVNNDIFDRVSAINRPNNYVDSETQTIDNMAVPNLKLSPTITSKSLSSTKEIAAPDNINGSKIVRSLSSKLKKVITGESRGNSPIKSRQNTGDSIRSAFGKLRHGFTGNSVNNSRSASFDNNNVNGNGNNTNRRLVSSSTSSFPKFNSDTKRKEESDKNQRLEKRRSMPPSILSDFDQHERNNSRTGSRDYYRSHSPVKKTQASAKTTSKPTLIPDNGNVNINQEKKESIQRRVHNLLKSSDDPVTYKSASGYGKYTDIGTETSNRHSSVRITPITEEKFKKTLKDGVLDIKTKSNGKDKSRPPRPPPKPLHLRTEIQKIRNFSRLQSKKLPIERISSEATETIVDVNVDDLEADFRKRFPSKV
B2: YLR206W (protein, UniProt Q05785 1-613, looked up)
Epsin-2: MSKQFVRSAKNMMKGYSSTQVLVRDATANDSRTPSIDTLDDLAQRSYDSVDFFEIMDMLDKRLNDKGKYWRHVAKSLTVLDYLVRFGSENCVLWCRENFYVIKTLREFRHENESGFDEGQIIRVKAKELVSLLNDEERLREERSMNTRNRRANRAARPRPRRQRTRSNPHDSSPSYQDDLEKALEESRITAQEDEQRRRELAQYDDEDPDFQAALQLSKEEEELKQLQELQRLQKQQQSLSQFQAPLQQQQPQQQPAYYDIFGNPISQDEYLQYQYQQDQEQAMAQQRWLDQQQEQQQLAEQQYFQQQQQAAAAASALQQQQTAANMQQQQQQPADFQQPLPTGSNNPFSMDNLERQKQEQQHAQLQRQQEEARQQQEQLKLQQLQRQQQEEAQLHQKRQEEAQLQQQQAQLLQQQAQFQQQQPLKQTRTGNQSISDKYSDLNTLLATGTGIDTFGNTGEARIPAQHTKTGTFINSQGTGYKQVTNEPKNNPFLSNQYTGLPSTNIVPTQTGYGFGNQPQSPPTNSPQQNPTGISYSQPQQQQQPQQQPQYMQNFQQQQPQYAQNFQQQPQYTQNYQQQPQYIQPHQQQQQQQQQQQQQQGYTPDQGVSLIDL
B3: YKR001C (protein, UniProt P21576 1-704, looked up)
Vacuolar protein …: MDEHLISTINKLQDALAPLGGGSQSPIDLPQITVVGSQSSGKSSVLENIVGRDFLPRGTGIVTRRPLVLQLINRRPKKSEHAKVNQTANELIDLNINDDDKKKDESGKHQNEGQSEDNKEEWGEFLHLPGKKFYNFDEIRKEIVKETDKVTGANSGISSVPINLRIYSPHVLTLTLVDLPGLTKVPVGDQPPDIERQIKDMLLKYISKPNAIILSVNAANTDLANSDGLKLAREVDPEGTRTIGVLTKVDLMDQGTDVIDILAGRVIPLRYGYIPVINRGQKDIEHKKTIREALENERKFFENHPSYSSKAHYCGTPYLAKKLNSILLHHIRQTLPEIKAKIEATLKKYQNELINLGPETMDSASSVVLSMITDFSNEYAGILDGEAKELSSQELSGGARISYVFHETFKNGVDSLDPFDQIKDSDIRTIMYNSSGSAPSLFVGTEAFEVLVKQQIRRFEEPSLRLVTLVFDELVRMLKQIISQPKYSRYPALREAISNQFIQFLKDATIPTNEFVVDIIKAEQTYINTAHPDLLKGSQAMVMVEEKLHPRQVAVDPKTGKPLPTQPSSSKAPVMEEKSGFFGGFFSTKNKKKLAALESPPPVLKATGQMTERETMETEVIKLLISSYFSIVKRTIADIIPKALMLKLIVKSKTDIQKVLLEKLYGKQDIEELTKENDITIQRRKECKKMVEILRNASQIVSSV
B4: YGR037C (protein, UniProt P31787 1-87, looked up)
Acyl-CoA-binding protein: MVSQLFEEKAKAVNELPTKPSTDELLELYALYKQATVGDNDKEKPGIFNMKDRYKWEAWENLKGKSQEDAEKEYIALVDQLIAKYSS
B5: YJL201W (protein, UniProt P32525 1-599, looked up)
Protein ECM25: MIDINVNNIFFRSYSVDPNSGHAIYVFDSTYLPASDEIGDKQVYDLLINALMDRLVMKLPQAPYSLVIFSSGFSQRKISWVYGIKMFAKLPKETKFYLQKIFIVHESFFVRSVYQVISNAMNFNFLDSKDSQHDFPSLVHVLDLTSLSELIDITRLRISLNVYLYDYQIREHINVPEEYYNRLTPLAIRQYRQLVFDKIFKKLQNDALLCELIFQKPGNYKKVNIFLDIIKRNNYIDLSQWDIYSLASVWLNYFIKNKAKPLIPIELIPLPIVDDLKFTSETFRKIIKFNQYQDLFMVIIPFFNRIIAHGESTKHDSRTLSKALTPALCKEKLSMMTNDRLAIGSRYIKNLLDFFPEIAKEISSPPSSVSSSSTIPVLPKPRKSSPTRYSELGCLTLPRSRSPSPQRSVTSPTYTPVALQNTPVLKPKSSSRNVSSPSFNAKPPLPIKAVTRPQLSLTSNSNTDLALASSSTDTLSSPTKTPSADSLPLSNSSTDLTISDNIKEMVKDEPAKDKNSVETDIFVQQFESLTLVQNAKIKKFDKELQEKKKKNETTSKTADKFSQKGYSDIKASNKVSRLAALYEERLQGLQVMNEMKQRW

What follows are molecules tested on 575 putative partners (preys) of 22 WT SH3-containing proteins (assay: DHFR-PCA on solid medium, WT and SH3-deleted baits (Fig. 1B)). Settings: bait SLA1-2, DHFR-PCA, label = prey; Replicates 4 (2 for YCR009C, YDR388W).
Assay type: cell-based, Saccharomyces cerevisiae
Parameters: key to Score: 0: SH3-independent; 1: SH3-dependent PPIs; 2: SH3-inhibited PPIs
From the text: To assess the requirement of SH3 domains for PPIs in vivo, we first measured binary interactions between 22 WT SH3-containing proteins (Supplementary Fig. 1A) as baits and 575 putative partners from their interconnected signaling networks using the dihydrofolate reductase protein–fragment complementation assay (DHFR-PCA) in the budding yeast Saccharomyces cerevisiae. About 33% (202/607) of the PPIs detected were described before, mostly by direct methods (Supplementary Fig. 1B, C)[11]. We repeated the experiments with baits in which the SH3s were individually replaced with a flexible linker by genome editing (SH3 domain deletion/stuffing, Fig. 1A). The stuffer DNA sequence ([…]) codes for a small flexible poly-Gly with Ser peptide ([…]) that is inspired by previous experiments[12],[13]. About a third of the SH3-containing protein interactome is qualitatively or quantitatively SH3-dependent (171 PPIs out of 607, Fig. 1B and Supplementary Fig. 1B, C). We validated the vast majority of the quantitative changes in low-throughput experiments and excluded that this is simply due to changes in protein abundance in most cases (Supplementary Fig. 1D–G). SH3-binding motifs[14] are more frequent in the SH3-dependent PPI partners when compared to sequences from random proteins, SH3-independent PPI partners or PPI partners that are stronger or gained following SH3 deletions (p values = 1.5 × 10^−17, 0.0038 and 2.1 × 10^−08, respectively; Mann–Whitney test, one-tailed, Fig. 1C). The changes we measure are therefore enriched for PPIs that depend on the direct interactions of the domains with the PPI partners.
The complete list of strains, primers, and gRNAs used in this study can be found in Supplementary Tables 1–3. All constructed yeast strains were validated by polymerase chain reaction (PCR) and confirmed by Sanger sequencing of the locus of interest. Bait strains for the DHFR-PCA experiments were constructed as follows. The genes of interest were fused at their genomic 3′ end by replacing the stop codon with a linker ([…]), the DHFR F[1,2] followed by a smaller linker (GGGGS), a 1× FLAG tag ([…]) and the NATMX4 resistance cassette via homologous recombination (all amplified from pAG25-DHFR[1,2]-linker-FLAG). The set of 615 prey strains (DHFR F[3] fusions in the BY4742 background) were retrieved from the Yeast Protein Interactome Collection[43] with the exception of 73 that were reconstructed (Supplementary Tables 1 and 2). Knockout strains were taken from the yeast knockout collection except for ABP1, BEM1, BZZ1, and SLA1, which were reconstructed by replacing the ORFs with the NATMX4 resistance cassette by homologous recombination in the BY4741 background.
Yeast SH3 domain genomic sequences were replaced by CRISPR–Cas9 genome editing. Each SH3 domain (as defined by the SMART database V8.0 except for Ysc84 SH3 (as defined by PROSITE), see Source Data for all SH3 sequences and Supplementary Table 1 for primers used) was specifically targeted by one gRNA[46]. Yeast competent cells were co-transformed with a pCAS plasmid (Addgene plasmid 60847[47]) expressing both the gRNA of interest and Streptococcus pyogenes Cas9[46] and a donor DNA sequence (stuffer) with 60 bp homology arms surrounding the SH3 DNA sequence. The Stuffer DNA was either PCR amplified or digested from a plasmid. The stuffer DNA sequence ([…]) codes for a small flexible linker ([…]) inspired by protein linkers used in structural biology[12],[13]. This type of linker is frequently used for fusing proteins without affecting the structure of the linked proteins.
The overall DHFR-PCA pipeline is based on Tarassov et al.[43] and the procedures have also been published as a visualized protocol. The screens were performed with robotically manipulated pin tools (BM5-SC1, S&P Robotics Inc.). First, the preys were cherry-picked from 96-well plates to omnitrays in a 384 format on YPD + HPH solid media. […]

Question: With B1 as the molecule, how does the “medrep (log2 median colony size normalized to plate background, PCA score)” value read?
Answer: Its value is 1.8519.

Question: B2 was tested. Which “medrep (log2 median colony size normalized to plate background, PCA score)” value did it give?
Answer: The value was 2.135.

Question: Which “medrep (log2 median colony size normalized to plate background, PCA score)” value does the source give for B3 here?
Answer: The value was 1.835.

Question: With B4 as the molecule, how does the “medrep (log2 median colony size normalized to plate background, PCA score)” value read?
Answer: The value was 1.385.

Question: How did the “medrep (log2 median colony size normalized to plate background, PCA score)” value turn out when B5 was run?
Answer: The value was 1.384.

Same assay, conditions: bait SLA1-2, label = prey

Question: With B1 as the molecule, how does the Score read?
Answer: The Score was 1.

Question: How did the Score turn out when B2 was run?
Answer: The Score was 1.

Question: How did the Score turn out when B3 was run?
Answer: Its Score is 1.

Question: For B4, which Score is on record?
Answer: Its Score is 1.

Question: How did the Score turn out when B5 was run?
Answer: The Score was 1.

Same assay, conditions: bait SLA1-2, label = prey; only significant differences shown; PPIs completely lost have a ratio of 0.1, gained PPIs 2.5

Question: How did the “Ratio (SH3-deleted/WT medrep)” value turn out when B1 was run?
Answer: Its value is 0.1.

Question: With B2 as the molecule, how does the “Ratio (SH3-deleted/WT medrep)” value read?
Answer: The value was 0.1.

Question: For B3, which “Ratio (SH3-deleted/WT medrep)” value is on record?
Answer: The value was 0.1.

Question: How did the “Ratio (SH3-deleted/WT medrep)” value turn out when B4 was run?
Answer: Its value is 0.1.

Question: Which “Ratio (SH3-deleted/WT medrep)” value does the source give for B5 here?
Answer: Its value is 0.1.

Same assay, conditions: bait SLA1-3, DHFR-PCA, label = prey; Replicates 4 (2 for YCR009C, YDR388W, YIL033C)

Question: How did the “medrep (log2 median colony size normalized to plate background, PCA score)” value turn out when B1 was run?
Answer: Its value is 1.8519.

Question: B2 was tested. Which “medrep (log2 median colony size normalized to plate background, PCA score)” value did it give?
Answer: The value was 2.135.

Question: Which “medrep (log2 median colony size normalized to plate background, PCA score)” value does the source give for B3 here?
Answer: The value was 1.835.

Question: B4 was tested. Which “medrep (log2 median colony size normalized to plate background, PCA score)” value did it give?
Answer: Its value is 1.385.

Question: How did the “medrep (log2 median colony size normalized to plate background, PCA score)” value turn out when B5 was run?
Answer: Its value is 1.384.

Same assay, conditions: bait SLA1-3, label = prey

Question: How did the Score turn out when B1 was run?
Answer: Its Score is 0.

Question: B2 was tested. Which Score did it give?
Answer: Its Score is 0.

Question: For B3, which Score is on record?
Answer: The Score was 0.

Question: With B4 as the molecule, how does the Score read?
Answer: Its Score is 1.

Question: Which Score does the source give for B5 here?
Answer: Its Score is 0.

Same assay, conditions: bait SLA1-3, label = prey; only significant differences shown; PPIs completely lost have a ratio of 0.1, gained PPIs 2.5

Question: With B4 as the molecule, how does the “Ratio (SH3-deleted/WT medrep)” value read?
Answer: The value was 0.1.

Each molecule was assayed on ABP1 (assay: DHFR-PCA on solid medium, bait ABP1 (Fig. 1B)). Settings: bait ABP1, label = prey; 2-4 replicates.
Assay type: cell-based, Saccharomyces cerevisiae
From the text: Supplement 41467_2021_21873_MOESM8_ESM.xlsx, sheet "Fig1B" | column: medsize; medrep; Ratio; Score

Question: With B1 as the molecule, how does the “medrep (log2 median colony size normalized to plate background, PCA score)” value read?
Answer: The value was 4.25.

Question: For B2, which “medrep (log2 median colony size normalized to plate background, PCA score)” value is on record?
Answer: Its value is 2.696.

Question: How did the “medrep (log2 median colony size normalized to plate background, PCA score)” value turn out when B3 was run?
Answer: The value was 2.787.

Question: Which “medrep (log2 median colony size normalized to plate background, PCA score)” value does the source give for B4 here?
Answer: The value was 3.115.

Question: How did the “medrep (log2 median colony size normalized to plate background, PCA score)” value turn out when B5 was run?
Answer: Its value is 3.816.
